Measurements reported in the supplement of paper PMC9112550, “Optimization of the antimicrobial peptide Bac7 by deep mutational scanning” (BMC Biology, 2022).

Test system: Escherichia coli TOP10
Assay: shrunken log2 fold change of peptide-encoding DNA abundance (4.5 h post-induction vs induction); higher = less antimicrobial activity (less host growth inhibition)
Settings: time post-induction: 4.5 h; library: site-saturation at positions 5, 18, 19, 20
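Also: peptides expressed intracellularly from a pBAD plasmid library in pooled LB shake-flask culture, induced with 0.3% L-arabinose, DNA abundance read by NGS, three biological replicates, DESeq2 with apeglm shrinkage.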

Row | Sequence | shrunken log2 fold change
1 | RRIRVRPPRLPRPRPRPKRYPRP | -0.078
2 | RRIRVRPPRLPRPRPRPKSAPRP | 0.172
3 | RRIRVRPPRLPRPRPRPKSHPRP | 1.35
4 | RRIRVRPPRLPRPRPRPKTKPRP | 0.0179
5 | RRIRVRPPRLPRPRPRPKTVPRP | -0.012
6 | RRIRVRPPRLPRPRPRPKVRPRP | 0.0291
7 | RRIRVRPPRLPRPRPRPKWGPRP | 0.155
8 | RRIRVRPPRLPRPRPRPKWIPRP | -0.114
9 | RRIRVRPPRLPRPRPRPKWLPRP | 0.0936
10 | RRIRVRPPRLPRPRPRPLAMPRP | 0.209
11 | RRIRVRPPRLPRPRPRPLCFPRP | 0.258
12 | RRIRVRPPRLPRPRPRPLEMPRP | -0.308
13 | RRIRVRPPRLPRPRPRPLGMPRP | -0.481
14 | RRIRVRPPRLPRPRPRPLGSPRP | -0.115
15 | RRIRVRPPRLPRPRPRPLHGPRP | 0.0379
16 | RRIRVRPPRLPRPRPRPLHWPRP | 0.243
17 | RRIRVRPPRLPRPRPRPLIGPRP | 0.0681
18 | RRIRVRPPRLPRPRPRPLKSPRP | -0.137
19 | RRIRVRPPRLPRPRPRPLLDPRP | 0.157
20 | RRIRVRPPRLPRPRPRPLMKPRP | -0.269
21 | RRIRVRPPRLPRPRPRPLMTPRP | -0.24
22 | RRIRVRPPRLPRPRPRPLNFPRP | -0.249
23 | RRIRVRPPRLPRPRPRPLNWPRP | 1.03
24 | RRIRVRPPRLPRPRPRPLQPPRP | 0.158
25 | RRIRVRPPRLPRPRPRPLREPRP | 0.379

Row | Sequence | shrunken log2 fold change
26 | RRIRVRPPRLPRPRPRPLSWPRP | 0.0819
27 | RRIRVRPPRLPRPRPRPLTFPRP | -0.271
28 | RRIRVRPPRLPRPRPRPLVWPRP | 0.115
29 | RRIRVRPPRLPRPRPRPLWGPRP | 0.0188
30 | RRIRVRPPRLPRPRPRPLWQPRP | 2.32
31 | RRIRVRPPRLPRPRPRPLYFPRP | -0.53
32 | RRIRVRPPRLPRPRPRPMAWPRP | -0.114
33 | RRIRVRPPRLPRPRPRPMDEPRP | 0.422
34 | RRIRVRPPRLPRPRPRPMDYPRP | -0.0122
35 | RRIRVRPPRLPRPRPRPMFEPRP | 0.0774
36 | RRIRVRPPRLPRPRPRPMFKPRP | -0.24
37 | RRIRVRPPRLPRPRPRPMGPPRP | 0.24
38 | RRIRVRPPRLPRPRPRPMGRPRP | -0.0203
39 | RRIRVRPPRLPRPRPRPMHDPRP | -0.134
40 | RRIRVRPPRLPRPRPRPMHRPRP | -0.0728
41 | RRIRVRPPRLPRPRPRPMIVPRP | 0.109
42 | RRIRVRPPRLPRPRPRPMLKPRP | -0.293
43 | RRIRVRPPRLPRPRPRPMLNPRP | -0.135
44 | RRIRVRPPRLPRPRPRPMMDPRP | -0.154
45 | RRIRVRPPRLPRPRPRPMNIPRP | -0.604
46 | RRIRVRPPRLPRPRPRPMPWPRP | 0.056
47 | RRIRVRPPRLPRPRPRPMSRPRP | 0.0217
48 | RRIRVRPPRLPRPRPRPMTRPRP | -0.123
49 | RRIRVRPPRLPRPRPRPMTWPRP | -0.124
50 | RRIRVRPPRLPRPRPRPMWNPRP | -0.0504

Row | Sequence | shrunken log2 fold change
51 | RRIRVRPPRLPRPRPRPMWRPRP | 0.127
52 | RRIRVRPPRLPRPRPRPMWWPRP | -0.0322
53 | RRIRVRPPRLPRPRPRPNAKPRP | 0.328
54 | RRIRVRPPRLPRPRPRPNCKPRP | -0.368
55 | RRIRVRPPRLPRPRPRPNDYPRP | -0.00419
56 | RRIRVRPPRLPRPRPRPNGEPRP | 0.0914
57 | RRIRVRPPRLPRPRPRPNHRPRP | -0.199
58 | RRIRVRPPRLPRPRPRPNHSPRP | -0.632
59 | RRIRVRPPRLPRPRPRPNICPRP | 0.27
60 | RRIRVRPPRLPRPRPRPNISPRP | -0.321
61 | RRIRVRPPRLPRPRPRPNKPPRP | -0.0479
62 | RRIRVRPPRLPRPRPRPNLRPRP | 0.0738
63 | RRIRVRPPRLPRPRPRPNMVPRP | -0.201
64 | RRIRVRPPRLPRPRPRPNNVPRP | -0.117
65 | RRIRVRPPRLPRPRPRPNPPPRP | 0.231
66 | RRIRVRPPRLPRPRPRPNPYPRP | -0.376
67 | RRIRVRPPRLPRPRPRPNRMPRP | -0.093
68 | RRIRVRPPRLPRPRPRPNVPPRP | -0.345
69 | RRIRVRPPRLPRPRPRPNWEPRP | 0.104
70 | RRIRVRPPRLPRPRPRPNYQPRP | -0.699
71 | RRIRVRPPRLPRPRPRPPANPRP | 0.3
72 | RRIRVRPPRLPRPRPRPPCIPRP | -0.00689
73 | RRIRVRPPRLPRPRPRPPCWPRP | 0.422
74 | RRIRVRPPRLPRPRPRPPEAPRP | -0.0358
75 | RRIRVRPPRLPRPRPRPPFPPRP | 0.369

Row | Sequence | shrunken log2 fold change
76 | RRIRVRPPRLPRPRPRPPHDPRP | 0.65
77 | RRIRVRPPRLPRPRPRPPHQPRP | 0.0363
78 | RRIRVRPPRLPRPRPRPPIVPRP | 0.0432
79 | RRIRVRPPRLPRPRPRPPKAPRP | 0.077
80 | RRIRVRPPRLPRPRPRPPKFPRP | 0.133
81 | RRIRVRPPRLPRPRPRPPNAPRP | 0.295
82 | RRIRVRPPRLPRPRPRPPQEPRP | 0.177
83 | RRIRVRPPRLPRPRPRPPQGPRP | 0.203
84 | RRIRVRPPRLPRPRPRPPQNPRP | 0.188
85 | RRIRVRPPRLPRPRPRPPRQPRP | 0.583
86 | RRIRVRPPRLPRPRPRPPRVPRP | 0.305
87 | RRIRVRPPRLPRPRPRPPRWPRP | 0.812
88 | RRIRVRPPRLPRPRPRPPSYPRP | 0.00807
89 | RRIRVRPPRLPRPRPRPPTIPRP | 0.0741
90 | RRIRVRPPRLPRPRPRPPVIPRP | -0.101
91 | RRIRVRPPRLPRPRPRPPWEPRP | 0.252
92 | RRIRVRPPRLPRPRPRPPWNPRP | 0.0143
93 | RRIRVRPPRLPRPRPRPPWPPRP | 0.464
94 | RRIRVRPPRLPRPRPRPPYDPRP | -0.0602
95 | RRIRVRPPRLPRPRPRPPYLPRP | -0.0916
96 | RRIRVRPPRLPRPRPRPPYWPRP | 0.121
97 | RRIRVRPPRLPRPRPRPQAYPRP | -0.00917
98 | RRIRVRPPRLPRPRPRPQCKPRP | -0.129
99 | RRIRVRPPRLPRPRPRPQDDPRP | -0.006
100 | RRIRVRPPRLPRPRPRPQDSPRP | -0.069

Row | Sequence | shrunken log2 fold change
101 | RRIRVRPPRLPRPRPRPQFIPRP | -0.128
102 | RRIRVRPPRLPRPRPRPQGMPRP | -1.02
103 | RRIRVRPPRLPRPRPRPQGNPRP | 0.055
104 | RRIRVRPPRLPRPRPRPQIHPRP | -1.01
105 | RRIRVRPPRLPRPRPRPQILPRP | -0.451
106 | RRIRVRPPRLPRPRPRPQLMPRP | -0.224
107 | RRIRVRPPRLPRPRPRPQLQPRP | -0.104
108 | RRIRVRPPRLPRPRPRPQLRPRP | 0.0648
109 | RRIRVRPPRLPRPRPRPQLVPRP | -0.048
110 | RRIRVRPPRLPRPRPRPQNTPRP | -0.524
111 | RRIRVRPPRLPRPRPRPQPDPRP | 0.23
112 | RRIRVRPPRLPRPRPRPQPKPRP | 0.0199
113 | RRIRVRPPRLPRPRPRPQQLPRP | -0.0555
114 | RRIRVRPPRLPRPRPRPQREPRP | -0.0361
115 | RRIRVRPPRLPRPRPRPQVDPRP | 0.00887
116 | RRIRVRPPRLPRPRPRPQVGPRP | 0.251
117 | RRIRVRPPRLPRPRPRPQWEPRP | 0.0101
118 | RRIRVRPPRLPRPRPRPQWNPRP | -0.386
119 | RRIRVRPPRLPRPRPRPQWQPRP | 0.0741
120 | RRIRVRPPRLPRPRPRPQYAPRP | -0.193
121 | RRIRVRPPRLPRPRPRPQYIPRP | -0.655
122 | RRIRVRPPRLPRPRPRPQYMPRP | -0.554
123 | RRIRVRPPRLPRPRPRPRAGPRP | 0.488
124 | RRIRVRPPRLPRPRPRPRAQPRP | 0.126
125 | RRIRVRPPRLPRPRPRPRCHPRP | 0.115

Row | Sequence | shrunken log2 fold change
126 | RRIRVRPPRLPRPRPRPRDSPRP | -0.188
127 | RRIRVRPPRLPRPRPRPRDWPRP | 0.274
128 | RRIRVRPPRLPRPRPRPREFPRP | 0.126
129 | RRIRVRPPRLPRPRPRPREGPRP | 0.307
130 | RRIRVRPPRLPRPRPRPREIPRP | 0.087
131 | RRIRVRPPRLPRPRPRPREMPRP | 0.0631
132 | RRIRVRPPRLPRPRPRPRESPRP | 0.259
133 | RRIRVRPPRLPRPRPRPRFPPRP | 0.285
134 | RRIRVRPPRLPRPRPRPRGMPRP | 0.274
135 | RRIRVRPPRLPRPRPRPRGWPRP | 0.666
136 | RRIRVRPPRLPRPRPRPRIFPRP | 0.137
137 | RRIRVRPPRLPRPRPRPRIGPRP | 0.131
138 | RRIRVRPPRLPRPRPRPRKDPRP | 0.0324
139 | RRIRVRPPRLPRPRPRPRKHPRP | 0.112
140 | RRIRVRPPRLPRPRPRPRLAPRP | 0.684
141 | RRIRVRPPRLPRPRPRPRLHPRP | 0.0296
142 | RRIRVRPPRLPRPRPRPRQVPRP | 0.0645
143 | RRIRVRPPRLPRPRPRPRSLPRP | -0.116
144 | RRIRVRPPRLPRPRPRPRSWPRP | 0.325
145 | RRIRVRPPRLPRPRPRPRVAPRP | 0.381
146 | RRIRVRPPRLPRPRPRPRWTPRP | -0.142
147 | RRIRVRPPRLPRPRPRPSAQPRP | 0.0391
148 | RRIRVRPPRLPRPRPRPSCFPRP | -0.264
149 | RRIRVRPPRLPRPRPRPSCRPRP | -0.0227
150 | RRIRVRPPRLPRPRPRPSDAPRP | -0.203
